Measurements reported in the nanobody polyreactivity screen of Harvey et al. (2022).

Assay: yeast display, Sf9 membrane polyspecificity reagent, FACS + sequencing; frameworks hold sequencing errors
Outline: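 Synthetic nanobody libraries on Saccharomyces cerevisiae BJ5465 were galactose-induced for 36–48 hours, stained 1 hour at 4 °C with 10% biotinylated, detergent-solubilized Sf9 membrane reagent and enriched on streptavidin microbeads. FACS then separated cells into low and high (top ~1%) gates by anti-HA (expression) and streptavidin (reagent binding) fluorescence. Genes were colony-PCR amplified, MiSeq 2 × 250 sequenced and CDR-length filtered. A clone's polyreactivity label is that of its gate of origin.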

Sequence | polyreactivity (PSR sort gate)
QVQLVESGGCLDQAGGRLRLSCAASGSTFYDYVMGWYRQAPGKERELVAVISSSGSTNYADSVKGRVTISRDNAKNTVYLQMNSLKPEDTAVYYCAVDPFRRWWETIFDEYDYWGQGTQVTVSS | low polyreactivity
QVQLVESGGCLFQAGGSLRLSCAASGSTFYWYTMGWYRQAHGKERELVSTMTTVGRTNYADSVKGRFTISRDNAKNTVYLQMKSLKPEVTAVYYCAASKARWPRGGCKYYYWRQGTQVTVSS | high polyreactivity
QVQLVESGGCLVHAGGSLRLSCAASGFTFRWYAMGWYRQAPGKERELVASISRRGGSTYYADSVKGRFTISRDNEKNTVYLQMNSLKPEDSAVYYCAADYYDYWGQGTQVTVSS | high polyreactivity
QVQLVESGGCLVQAGGILRLSCAASGSIFVGYDMGWYRQAPGKERELVAAITGTVSTYYADSVKGRFTISRDNAKNTVYLQMNSLKPEDTAVYYCAAEFVYAYGDGGVYWSWMEYWGQGTQVTVSS | low polyreactivity
QVQLVESGGCLVQAGGILRLSCAASGYTFFLYAMGWYRQAPGKERELVAAINNGGGSTYYADSVKGRFTISRDNAKNTVYLQMNSLKPEDTAVYYCAVRVARGYRYGYWGQGTQVTVSS | high polyreactivity
QVQLVESGGCLVQAGGRLRLSCAASGFTFGYYAMGWYIQAPGKERELVAAIDWSGGTTYYADSVKGRFTISRDNAKNTVYLQMNSLKPEDTAVYYCAADVVEEDDLEFYYWGQGTQVTVSS | high polyreactivity
QVQLVESGGCLVQAGGRLRLSCAASGRTFTGYTMGWYRQAPGKEREFVAAIRKSGGSTYYADSVKGRFTISRDNAKNTVYLQMNSLKPEDTAVYYCASRYRYYYTRYDYWGQGTQVTVSS | high polyreactivity
QVQLVESGGCLVQAGGSLPLSSAASGSTFSYNDMGSDRQAPGKARELVADINVSVGRTYYADSVKGRFTISRDNAKNTVYLQMNSLKPEDTAVYYCAKDYYRYHYYYCGQGTQVTVSS | low polyreactivity
QVQLVESGGCLVQAGGSLRFTCAASGSIFPYYAMGWYRQAPGKERELVAAISGSGGSTYYADSVTGRFTISRDNAKYTVYLQMNSLNQEDTAVYYCAARPFARYEYWGQGTQVTVSS | low polyreactivity
QVQLVESGGCLVQAGGSLRLICAASGGLFGTYTMGWYRQAPGKERELVAAIRSSSGRTYYADSVKGRFTISRDNAKNTVYLQMNILKPEDTAVYYCNAKYYGYRVGKYYPFGYWGQGTQVTVSS | high polyreactivity
QVQLVESGGCLVQAGGSLRLSCAASGFIFGSNVMGWYRQAPGKERELVAAISYSGASTYYADSVKGRFTISRDNAKNTVYLQMNSLKPEDTAVYYCNAESYYFYWPVYSYDYWGQGTQVTVSS | low polyreactivity
QVQLVESGGCLVQAGGSLRLSCAASGFTFGRYAMGWYRQAPGKEREFVAAISYTGTSTYYADSVKGRFTISRDNAKNTVYLQMNSLKPEDTAVYYCNAVHPGTVAYDSWGQGTQVTVSS | high polyreactivity
QVQLVESGGCLVQAGGSLRLSCAASGFTFGRYVMGWYRQAPGKERELVAGINQSGGRTNYADSVKGRFTISRDNAKNTVYLQMNSLKPEDTAVYYCAALRSWRKTGGAQRYWYDYWGQGTQVTVSS | high polyreactivity
QVQLVESGGCLVQAGGSLRLSCAASGGIFYPNAMGWYRQAPGKEREFVASITRSGGSTYYADSVKGRFTISRDNAKNTVYLQLNSLTPEDTAVYDCAAAYKSLYTYTRFYYWGQGTQVTVSS | high polyreactivity
QVQLVESGGCLVQAGGSLRLSCAASGLIFYENAMGWYRQAPGKERELVAAINYDGDSTYYADSVKGRFTISRDNAKITVYLQMNSLKPEDTAVYYCAADGGWVLFWMDYWGQGTQVTVSS | low polyreactivity
QVQLVESGGCLVQAGGSLRLSCAASGLTFRYYAMGWYRQAPGKERELVAAITASVGSTYYADSVKGRFTISRDNAKNTVYLQMNSLKPEDTAVYYCAADSEQDNLRYYRWVWYDYWGQGTQVTVSS | low polyreactivity
QVQLVESGGCLVQAGGSLRLSCAASGNTFTSYAMGWYRQAPGKERELVAAISASGSSTYYADSVKGRFTISRDNAKNTVYLQMNSLKPEDTAVYYCNAVKYRVESSYDYWGQGTQVTVSS | low polyreactivity
QVQLVESGGCLVQAGGSLRLSCAASGNTIIRYAMGWYRQAPGKERELVAAISYSGGRTYYADSVKGRFTISRDNAKNTVYLQMNSLKPVDNAVYYCNAASRYGGDYWGQGTQVTVSS | high polyreactivity
QVQLVESGGCLVQAGGSLRLSCAASGRIFGSYTKGWYRQAPGKERELVAAISDSGDSTYADSVKGRFTISRDNAKNTVYLQMNSLKPEDTAVYYCNAKSGSLAGNEYDYWGQGTQVTVSS | low polyreactivity
QVQLVESGGCLVQAGGSLRLSCAASGRIFRYNTMGWYRQAPGKEREFVASISNGGSTNYADSVKGRFTISRDNAKNTVYLQMNSLKPEDTAVYYCNADVPSDGYPGYPGGFESWGQGTQVTVSS | low polyreactivity
QVQLVESGGCLVQAGGSLRLSCAASGRIFYSYAMGWYRQAPGKERELVATISSGGSTNYADSVKGRFTISRDHAKNTVYLQMNSLKPEDTAVYFCAAADRLYWRGVIYRQYDYWGLGTQVTVSS | high polyreactivity
QVQLVESGGCLVQAGGSLRLSCAASGRIIYSNGMGWYRQAPGKERELVAAISSGGSTYYADSVKGRFTISRDNAKNTVYLQMNSLKPEDTAVYYCNKDYLLRHYYIYVIEGDYWGQGTQVTVSS | low polyreactivity

Sequence | polyreactivity (PSR sort gate)
QVQLVESGGCLVQAGGSLRLSCAASGRRVQTYAMGWYRQAPRKERELVAAISIRGGSTYYADSVKGRFTISRDNAKNTVYLQKNSLTPEDTAVYYCNALYGRQIVDYEYWGQGTQVTVSS | low polyreactivity
QVQLVESGGCLVQAGGSLRLSCAASGRTFGFYAMGWYRQAPGKERELVAGITQSGGSTYYADSVKGRFTISRDNAKNTVYLQMNSLKTEDTAVYYCATDYQQLDDYWGQGTQVTVSS | low polyreactivity
QVQLVESGGCLVQAGGSLRLSCAASGRTFSYYAMGWYRQAPGKERELVAAIDWSGSRTYYADSVKGRFTISRDNAKNTVYLQMNSLKPEDTAVYYCIADRTRGYQRYDYWGQGTQVTVSS | high polyreactivity
QVQLVESGGCLVQAGGSLRLSCAASGRTFYLYAMGWNRQAPGKEREFVARITFSGVSTYYADSVKGSFTISRDNAKNTVSLQMYRLKPEDTAVYYCNRVGHYGYSEGYYYWGQGTQVTVSS | high polyreactivity
QVQLVESGGCLVQAGGSLRLSCAASGRTSDGYAMGWYRQAPGKERELVAGITEGGGDTYYADSVKGRFTISRDNAKITDYLQMNSLKPEDTAVYYCNAGEGSRLPYDYWGQGTQVTVSS | low polyreactivity
QVQLVESGGCLVQAGGSLRLSCAASGSIFDAYDKGWYRQAPGKERELVAAISRSGASTYYADSVKGRFTISRDNAKNTVYLQMNSLKPEDTAVYSCAARDRQRVSYGYWGQGTQVTVTS | high polyreactivity
QVQLVESGGCLVQAGGSLRLSCAASGSIFDSNAMGWYRQAPGKERELVAAITWSGGRTYYADSVKGRFTISLDNAKNTVYLQMNSLKPEDTAVYYCAARKYTLFWPYDYWGQGTQVTVSS | high polyreactivity
QVQLVESGGCLVQAGGSLRLSCAASGSIFLFYAMGWYRHPPGKERELVAVIDTRASTTYYADSVKGRFTISRDNAKNTVYLQMNSLKPEDTAVYYCAAELQFTLYYSRPLLYQYYYWGQGTQVTVSS | high polyreactivity
QVQLVESGGCLVQAGGSLRLSCAASGSIFRYYAKGWYRQAPGKERELVAAIRVSTGSTSYADSVKGRFTISRDTAKNTVYLQMNSLKPEDTAFYYCNARSRQVIAYRQHNYWGQGTQVTVSS | high polyreactivity
QVQLVESGGCLVQAGGSLRLSCAASGSIFSRYDMGWYRQAPGKEREFVPRITQRGGSTYYADSVKGRFTISRDNAKNTVYLQMNTVKPEDTAVYYCYADHYRRQLAEDYWGQGTQVTVSS | low polyreactivity
QVQLVESGGCLVQAGGSLRLSCAASGSIFVYYAMGWYRQSPGKERELVAAISWSGGSTRYADSVKGRFTISRDNAKNTVYLQMNSLKPEDTAVYYCAAKRLGGGYWGQGTQVTVSS | high polyreactivity
QVQLVESGGCLVQAGGSLRLSCAASGSIFYKYAMGWYRQAPGKERELVAAITSGGRTTYADSVKGRFTISRDNAKNTVYLQMNSLKPEDTAVYYCAAVVFSRRYWVKFYYWGQGTQVNVSS | high polyreactivity
QVQLVESGGCLVQAGGSLRLSCAASGSIITWNAMVWYRQAPGKERELVAAIDWDGGSTYYADSVKGRFTISRDNAKNTVYLQMHILKPEDTAVYYCAATYGWYTVRYPSGHYYYWGQGTQVTVSS | low polyreactivity
QVQLVESGGCLVQAGGSLRLSCAASGSTFKRYAMGWYRQAPGKVGELVAAISKSGGSTYYADSVKGRFTISRDNAKNTDYLQMNCLNAEDTAVYYCAAGRSIGALYYGMDYWGEGTQVTVSS | high polyreactivity
QVQLVESGGCLVQAGGSLRLSCAASGSTFNFYAMGWYRQAPGKEREFVAAITSSGDSTYYADSVKGRFTISRDNAKNTVYLQMNSLKPEDTAVYYCAALTPRNRYRKFDYWGQGTQVTVSS | high polyreactivity
QVQLVESGGCLVQAGGSLRLSCAASGSTFTINVMGWYRQAPGKERELVAAINGGGRTNYADSVKGRFTISRDNAKNTVYLQMNSLKPEDTAVYYCAADGLSNVRQMDYWGQGTQVTVSS | low polyreactivity
QVQLVESGGCLVQAGGSLRLSCAASGSTFTTNAMGWYIQAPGKERELVAAISWSGTTTYYADSVKGRFTISRDNAKNTGYLQMNSLKPEDTAVYYCAAQVVSGTVAYLDFGYWGQGTQVTVSS | low polyreactivity
QVQLVESGGCLVQAGGSLRLSCAASGSTFWPYAMGWYRQAPGKERELVAAITSSGGSTYYADSVKGRFTISRDNAKNTVYLQMNSLKPEDTEVYYCAADWSNLGAYDYWGQGTQVTVSS | low polyreactivity
QVQLVESGGCLVQAGGSLRLSCAASGSTLGYYAMGWYRQAPGKERELVASIRWDTASTYYADSVKGRFTISRDNAKNTVYLQMNSLKPEDTAVYYCNAGRPRFYRSRWYYYGYGYWGQGTQVTVSS | high polyreactivity
QVQLVESGGCLVQAGGSLRLSCAASGSTLSYYAMGWYRQAPGKERELVAAINKSVTRTYYADSVKGRFTISRDNAKNTVYLQMNSLKPEDTAVYYCAASVPYYNGYYYNAYEYWGQGTQVTVSS | high polyreactivity
QVQLVESGGCLVQAGGSLRLSCASSGSTFSPNDMGWYRQAPGKESELVADISNYADSVKGRFTISRDNAKNTVYLQMNSLKPEDTAVYYCAAEWRGDRYRLYVVSWWYDYWGQGTQVTVSS | low polyreactivity
